Here are results for one substance from patent publication US7723122.

The experiment addresses protein A (UniProt P38507). As to the kind of experiment: SPR, BIACORE 3000, protein A immobilised on CM5 chip, 4.4 ug/ml BSA in flow at 20 ul/min; nonlinear regression with Rmax fixed at 880 RU. In general terms: SPR reads the build-up and loss of mass on a sensor chip optically.

“BSA (molecular weight: 66,200) (from UniProt P02769 25-607) (other; other documents disagree on this pair)” came in with a koff of 0.11 s⁻¹ and an on-rate (kon) of 880000 M⁻¹ s⁻¹.

By koff is commonly meant a measure of how fast the partners let go of each other. Higher therefore signals a short-lived complex. In general, kon refers to the second-order rate constant of association. Low readings indicate slower complex formation, high ones faster complex formation.
